Source: patent US20150307599A1 (GARVAN INSTITUTE OF MEDICAL RESEARCH, published 2015)
Where no end group is shown, it is not given here.

Assays:
[1] = biological target: T1, Peptide 1p17 (NPY last 17 residues Alanine Scan) (C-terminal amide (-NH2)); experiment: indirect ELISA, peptide coated at 20 ug/mL, MAb at 1 ug/mL
T1 construct: NPY 25-mer with alanine at NPY residue 35
Protocol: (§1) ELISA was used to map the reactivity of purified MAb 5E12-B7 against the peptides described in Table 3. Briefly, ELISA microwell plates (96-well Maxisorp, Nunc) were coated overnight at 4° C. with 50 μL of mapping peptides (Table 3) diluted to 20 μg/mL in carbonate coating buffer (CCB). Between each of the following steps, microwell plates were washed three times with PBST using a plate washer (BioTek). Coated wells were blocked with 200 μL PBS containing 5% w/v skim milk (Diploma). Blocked wells were incubated for 1 hr with 50 μL of MAb 5E12-B7 diluted to 1 μg/mL in skim milk/PBST. Wells were then incubated for 1 hr with 50 μL Peroxidase-conjugated AffiniPure F(ab)2 fragment goat anti-mouse secondary antibody (Jackson) diluted 1:5000 in skim milk/PBST. Ig binding was detected by incubation of wells with 50 μL TMB substrate (Becton Dickinson). Substrate reaction was stopped after 15 min with 50 μL 1M H₂SO₄ and O.D. 450 nm was measured.

[2] = biological target: T2, Peptide 2p15 (Poly Ala with shrinking NPY C term); experiment: as above
T2 construct: 15 alanines followed by RY-amide
T2 peptide: AAAAAAAAAAAAAAARY-NH2
Protocol: as §1

[3] = biological target: T3, Peptide 2p16 (Poly Ala with shrinking NPY C term); experiment: as above
T3 construct: 16 alanines followed by Y-amide
T3 peptide: AAAAAAAAAAAAAAAAY-NH2
Protocol: as §1

[4] = biological target: T4, Peptide 2p17 (HBY with polyAlanine C terminus) (C-terminal amide (-NH2)); experiment: as above
T4 construct: HBY with four alanine residues added to the C-terminus
T4 peptide: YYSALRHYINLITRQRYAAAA
Protocol: as §1

[5] = biological target: T5, Peptide 1p18 (NPY last 17 residues Alanine Scan) (C-terminal amide (-NH2)); experiment: as above
T5 construct: NPY 25-mer with alanine at NPY residue 36
Protocol: as §1

[6] = biological target: T6, Peptide 1p16 (NPY last 17 residues Alanine Scan) (C-terminal amide (-NH2)); experiment: as above
T6 construct: NPY 25-mer with alanine at NPY residue 34
Protocol: as §1

1p24-RYYSALRHYI = biological target: T7, 1p24-RYYSALRHYI; experiment: indirect ELISA, peptide coated on the plate (20 µg/mL), MAb 5E12-B7 at 1 µg/mL, O.D. 450 nm
T7 construct: NPY residues 19-28; also called Peptide 1p24 (10 mer shifting across NPY)
T7 peptide: RYYSALRHYI-NH2
Protocol: as §1

1p22-MARYYSALRH = biological target: T8, 1p22-MARYYSALRH; experiment: as above
T8 construct: NPY residues 17-26; also called Peptide 1p22 (10 mer shifting across NPY)
T8 peptide: MARYYSALRH-NH2
Protocol: as §1

1p30-RHYINLITRQ = biological target: T9, 1p30-RHYINLITRQ; experiment: as above
T9 construct: NPY residues 25-34; also called Peptide 1p30 (10 mer shifting across NPY)
T9 peptide: RHYINLITRQ-NH2
Protocol: as §1

1p23-ARYYSALRHY = biological target: T10, 1p23-ARYYSALRHY; experiment: as above
T10 construct: NPY residues 18-27; also called Peptide 1p23 (10 mer shifting across NPY)
T10 peptide: ARYYSALRHY-NH2
Protocol: as §1

1p31-HYINLITRQR = biological target: T11, 1p31-HYINLITRQR; experiment: as above
T11 construct: NPY residues 26-35; also called Peptide 1p31 (10 mer shifting across NPY)
T11 peptide: HYINLITRQR-NH2
Protocol: as §1

1p21-DMARYYSALR = biological target: T12, 1p21-DMARYYSALR; experiment: as above
T12 construct: NPY residues 16-25; also called Peptide 1p21 (10 mer shifting across NPY)
T12 peptide: DMARYYSALR-NH2
Protocol: as §1

1p25-YYSALRHYIN = biological target: T13, 1p25-YYSALRHYIN; experiment: as above
T13 construct: NPY residues 20-29; also called Peptide 1p25 (10 mer shifting across NPY)
T13 peptide: YYSALRHYIN-NH2
Protocol: as §1

Measured: binding result

B1: MAb 5E12-B7 (antibody, V domains shown)
VH: QVQLQHPGTEVVKPGASVKLSCKASGYTFTNYWMHWVKQRPGQGLEWIGNIDPSNGGTNYNEKFKSKATLTVDKSSSTAYMQLSSLTSEDSAVYYCASFAYWGQGTLVTVSA
VL: DIQMTQSPASLSASVGETVTITCRASGNIHNYLAWYQQKQGKSPQLLVYNAKTLADGVPSRFSGSGSGTQYSLKISSLRPEDFGSYYCQHFWSPPFTFGSGTKLEIK
notes: Biotinylated for the Biacore and Octet assays; also called PYY/NPY antibody (5E12); anti-NPY/PYY antibody 5E12
no binding: [1] | [2] | [3] | [4] | [5] | [6]
no binding (tested: 1 µg/mL): all other assays above
